Data from US20210388087A1 (Chugai, published 2021).

T1: Human CD3eg linker (human)
T1 construct: Single-chain construct; also called recombinant human CD3
T1 chain: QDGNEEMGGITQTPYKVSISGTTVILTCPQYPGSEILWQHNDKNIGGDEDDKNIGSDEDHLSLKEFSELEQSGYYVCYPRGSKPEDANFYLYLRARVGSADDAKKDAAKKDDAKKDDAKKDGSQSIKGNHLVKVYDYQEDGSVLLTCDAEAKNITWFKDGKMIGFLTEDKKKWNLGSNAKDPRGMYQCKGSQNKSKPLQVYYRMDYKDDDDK


Target: T1, Human CD3eg linker
Experiment: SPR; fold vs parent H183/L072

| fold change of affinity | Binder |
| --- | --- |
| 0.7 fold | H183/L072 VL S93V (antibody, name in Kabat numbering, V domains shown) VH: QVQLVESGGGLVQPGRSLRLSCAASGFTFSNAWMHWVRQAPGKGLEWVAQIKDKGNAYAAYYAPSVKGRFTISRDDSKNSIYLQMNSLKTEDTAVYYCHYVHYASASTVLPAFGVDAWGQGTTVTVSS VL: DIVMTQSPLSLPVTPGEPASISCQASQELVHMNRNTYLHWYQQKPGQAPRLLIYKVSNRFPGVPDRFSGSGSGTDFTLKISRVEAEDVGVYYCAQGTVVPFTFGQGTKLEIK |
| 0.4 fold | H183/L072 VL T31E (antibody, name in Kabat numbering, V domains shown) VH: QVQLVESGGGLVQPGRSLRLSCAASGFTFSNAWMHWVRQAPGKGLEWVAQIKDKGNAYAAYYAPSVKGRFTISRDDSKNSIYLQMNSLKTEDTAVYYCHYVHYASASTVLPAFGVDAWGQGTTVTVSS VL: DIVMTQSPLSLPVTPGEPASISCQASQELVHMNRNEYLHWYQQKPGQAPRLLIYKVSNRFPGVPDRFSGSGSGTDFTLKISRVEAEDVGVYYCAQGTSVPFTFGQGTKLEIK |
| 1.1 fold | H183/L072 VL S93W (antibody, name in Kabat numbering, V domains shown) VH: QVQLVESGGGLVQPGRSLRLSCAASGFTFSNAWMHWVRQAPGKGLEWVAQIKDKGNAYAAYYAPSVKGRFTISRDDSKNSIYLQMNSLKTEDTAVYYCHYVHYASASTVLPAFGVDAWGQGTTVTVSS VL: DIVMTQSPLSLPVTPGEPASISCQASQELVHMNRNTYLHWYQQKPGQAPRLLIYKVSNRFPGVPDRFSGSGSGTDFTLKISRVEAEDVGVYYCAQGTWVPFTFGQGTKLEIK |
| 0.2 fold | H183/L072 VL T31A (antibody, name in Kabat numbering, V domains shown) VH: QVQLVESGGGLVQPGRSLRLSCAASGFTFSNAWMHWVRQAPGKGLEWVAQIKDKGNAYAAYYAPSVKGRFTISRDDSKNSIYLQMNSLKTEDTAVYYCHYVHYASASTVLPAFGVDAWGQGTTVTVSS VL: DIVMTQSPLSLPVTPGEPASISCQASQELVHMNRNAYLHWYQQKPGQAPRLLIYKVSNRFPGVPDRFSGSGSGTDFTLKISRVEAEDVGVYYCAQGTSVPFTFGQGTKLEIK |
| 0.1 fold | H183/L072 VL T31H (antibody, name in Kabat numbering, V domains shown) VH: QVQLVESGGGLVQPGRSLRLSCAASGFTFSNAWMHWVRQAPGKGLEWVAQIKDKGNAYAAYYAPSVKGRFTISRDDSKNSIYLQMNSLKTEDTAVYYCHYVHYASASTVLPAFGVDAWGQGTTVTVSS VL: DIVMTQSPLSLPVTPGEPASISCQASQELVHMNRNHYLHWYQQKPGQAPRLLIYKVSNRFPGVPDRFSGSGSGTDFTLKISRVEAEDVGVYYCAQGTSVPFTFGQGTKLEIK |
| 0.7 fold | H183/L072 VL T31I (antibody, name in Kabat numbering, V domains shown) VH: QVQLVESGGGLVQPGRSLRLSCAASGFTFSNAWMHWVRQAPGKGLEWVAQIKDKGNAYAAYYAPSVKGRFTISRDDSKNSIYLQMNSLKTEDTAVYYCHYVHYASASTVLPAFGVDAWGQGTTVTVSS VL: DIVMTQSPLSLPVTPGEPASISCQASQELVHMNRNIYLHWYQQKPGQAPRLLIYKVSNRFPGVPDRFSGSGSGTDFTLKISRVEAEDVGVYYCAQGTSVPFTFGQGTKLEIK |
| 0 fold | H183/L072 VL T31D (antibody, name in Kabat numbering, V domains shown) VH: QVQLVESGGGLVQPGRSLRLSCAASGFTFSNAWMHWVRQAPGKGLEWVAQIKDKGNAYAAYYAPSVKGRFTISRDDSKNSIYLQMNSLKTEDTAVYYCHYVHYASASTVLPAFGVDAWGQGTTVTVSS VL: DIVMTQSPLSLPVTPGEPASISCQASQELVHMNRNDYLHWYQQKPGQAPRLLIYKVSNRFPGVPDRFSGSGSGTDFTLKISRVEAEDVGVYYCAQGTSVPFTFGQGTKLEIK |
| 0 fold | H183/L072 VL T31G (antibody, name in Kabat numbering, V domains shown) VH: QVQLVESGGGLVQPGRSLRLSCAASGFTFSNAWMHWVRQAPGKGLEWVAQIKDKGNAYAAYYAPSVKGRFTISRDDSKNSIYLQMNSLKTEDTAVYYCHYVHYASASTVLPAFGVDAWGQGTTVTVSS VL: DIVMTQSPLSLPVTPGEPASISCQASQELVHMNRNGYLHWYQQKPGQAPRLLIYKVSNRFPGVPDRFSGSGSGTDFTLKISRVEAEDVGVYYCAQGTSVPFTFGQGTKLEIK |
